Test results taken from US20230399394A1 (SUNSHINE GUOJIAN PHARMACEUTICAL SHANGHAI, published 2023).

T1: IL-33 mutant protein L50A (human, UniProt O95760 112-270)
T1 construct: Prokaryotic expression
T1 chain: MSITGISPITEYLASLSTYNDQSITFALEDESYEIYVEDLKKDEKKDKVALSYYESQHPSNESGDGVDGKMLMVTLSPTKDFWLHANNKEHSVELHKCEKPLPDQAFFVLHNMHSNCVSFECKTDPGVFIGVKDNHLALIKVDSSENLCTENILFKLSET

T2: IL-33 mutant protein Q57A (human, UniProt O95760 112-270)
T2 construct: Prokaryotic expression
T2 chain: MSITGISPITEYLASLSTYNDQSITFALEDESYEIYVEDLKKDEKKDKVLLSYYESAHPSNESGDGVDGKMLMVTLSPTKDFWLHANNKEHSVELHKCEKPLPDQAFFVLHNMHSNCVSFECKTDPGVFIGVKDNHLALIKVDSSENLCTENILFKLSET

T3: IL-33 mutant protein P59A (human, UniProt O95760 112-270)
T3 construct: Prokaryotic expression
T3 chain: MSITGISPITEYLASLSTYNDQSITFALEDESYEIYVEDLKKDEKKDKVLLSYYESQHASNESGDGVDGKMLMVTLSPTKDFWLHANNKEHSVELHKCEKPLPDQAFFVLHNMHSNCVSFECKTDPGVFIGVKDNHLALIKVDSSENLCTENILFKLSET

T4: IL-33 mutant protein N61A (human, UniProt O95760 112-270)
T4 chain: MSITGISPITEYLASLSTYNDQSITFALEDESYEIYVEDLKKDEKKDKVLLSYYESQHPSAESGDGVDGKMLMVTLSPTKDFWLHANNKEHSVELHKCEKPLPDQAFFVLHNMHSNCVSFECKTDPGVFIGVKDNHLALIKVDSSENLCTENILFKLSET

T5: IL-33 mutant protein D68A (human, UniProt O95760 112-270)
T5 construct: Prokaryotic expression
T5 chain: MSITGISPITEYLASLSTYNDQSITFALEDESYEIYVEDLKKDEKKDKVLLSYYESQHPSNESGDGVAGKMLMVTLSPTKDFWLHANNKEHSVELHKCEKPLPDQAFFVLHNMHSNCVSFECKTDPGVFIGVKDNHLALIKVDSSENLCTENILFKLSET

T6: IL-33 mutant protein Y53A (human, UniProt O95760 112-270)
T6 construct: Prokaryotic expression
T6 chain: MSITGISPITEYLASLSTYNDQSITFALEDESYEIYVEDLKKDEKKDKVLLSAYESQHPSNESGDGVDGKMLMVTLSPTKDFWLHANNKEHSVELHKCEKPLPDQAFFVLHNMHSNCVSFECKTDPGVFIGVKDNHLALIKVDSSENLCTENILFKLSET

T7: Human IL-33-his (human, UniProt O95760 112-270, biotinylated with EZ-Link NHS-Biotin where used as IL-33-his-biotin)
T7 construct: Used plain (SPR, cell assays) and biotinylated (ELISA); also called IL-33-his-biotin
T7 sequence: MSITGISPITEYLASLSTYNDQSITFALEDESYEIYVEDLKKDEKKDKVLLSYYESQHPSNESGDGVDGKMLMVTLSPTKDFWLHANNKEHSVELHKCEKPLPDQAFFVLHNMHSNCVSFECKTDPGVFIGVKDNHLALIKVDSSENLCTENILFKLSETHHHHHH


Legend:
[1] = biological target: T1, IL-33 mutant protein L50A; test: ELISA as Example 9; row L50A
Method: (§1) SA protein was diluted to 2 μg/mL to coat ELISA plate at 100 μL/well overnight at 4° C. The plate was washed with PBST (PBS containing 0.05% Tween20) for 3 times, and blocked with 2% BSA prepared in PBS at 200 μL/well, at room temperature for 2 h. After the plate was washed twice with PBST, IL-33-his-biotin protein was diluted to 1 μg/mL with 1% BSA prepared in PBST, and was added to ELISA plate at 100 μL/well. The plate was incubated at room temperature for 1 h, and each monoclonal antibody was diluted with 1% BSA prepared in PBST in a 3-fold gradient. The highest concentration of antibody was 10 μg/mL, and the antibody was diluted for 12 gradients. Each diluted monoclonal antibody was added to ELISA wells with 100 μL/well, and the plate was incubated at room temperature for 1 h. Each sample was added to duplicate wells in parallel. The plate was washed with PBST for 3 times, and HRP-anti human IgG Fc secondary antibody prepared with PBST was diluted at an appropriate ratio, and was added to ELISA wells at 100 μL/well. […] Each reaction solution was shaken uniformly and OD450 nm was read on a microplate reader. The data was analyzed and EC₅₀ was calculated.
(§2) Subsequently, according to the experimental method of Example 9, the affinity of the above mutant proteins to 874F7-Hu1 was determined, and IL-33 proteins (WT-1, WT-2, WT-3, and WT-4) without any mutation were set as controls.

[2] = biological target: T2, IL-33 mutant protein Q57A; test: ELISA as Example 9; row Q57A
Method: as §1, §2

[3] = biological target: T3, IL-33 mutant protein P59A; test: ELISA as Example 9; row P59A against WT-1
Method: as §1, §2

[4] = biological target: T4, IL-33 mutant protein N61A; test: ELISA as Example 9; row N61A
Method: as §1, §2

[5] = biological target: T5, IL-33 mutant protein D68A; test: ELISA as Example 9; row D68A against WT-3
Method: as §1, §2

[6] = biological target: T6, IL-33 mutant protein Y53A; test: ELISA as Example 9; row Y53A
Method: as §1, §2

Human IL-33-his = biological target: T7, Human IL-33-his; test: competition ELISA, antibody mixed with IL-33-his-biotin, ST2 on plate; competitor ST2
Method: ST2 is the only receptor for IL-33 that has been discovered so far. As a cytokine, IL-33 exerts its physiological function depending on ST2 signaling pathway, and the blocking activity of antibody can reflect the neutralizing activity thereof. The specific method was as follows: the plate was coated with 2 μg/ml ST2 PBS solution at 4° C. overnight; the plate was washed with PBST for 3 times, then the plated was blocked with 5% skim milk powder at 37° C. for 2 hours; the plate was washed with PBST for 3 times for later use. 20 ng/ml IL-33-his-biotin antigen diluted by 1% BSA was mixed with antibodies to be tested diluted by gradient with 1% BSA at 1:1 equal volume and incubated at 37° C. for […]. The mixture was added to a pre-coated ST2 plate and incubated at 37° C. for 1 h. The plate was washed with PBST for 3 times. HRP-labeled streptavidin secondary antibody was added at 1:8000 and incubated at 37° C. for 0.5 hours. After washing the plate with PBST for 3 times, the plate was patted on the absorbent paper to remove residual droplets as far as possible. 100 μl TMB was added to each well, and the plate was placed at room temperature (20±5° C.) for 5 minutes away from light; 50 μl 2M H₂SO₄ terminating solution was added to each well to terminate the substrate reaction. OD values were read at 450 nm on the microplate reader.

EC50 [1] [pM] | EC50 [2] [pM] | Affinity decline ratio [3] [fold] | EC50 [4] [pM] | Affinity decline ratio [5] [fold] | EC50 [6] [pM] | IC50 (Human IL-33-his) [pM] | Binder
3340 | 120 | 0.5 | 150 | 1.2 | 440 |  | 874F7-Hu1 (antibody, human IgG4 S228P, kappa, also called 874F7-Hul; humanized antibody 874F7-Hu1) heavy: not shown light: DIQMTQSPSSVSASVGDRVTITCLASQTIGAWLAWYQQKPGKSPKLLIYAATRLADGVPSRFSGSGSGTDFTLTISSLQPEDFATYYCQQLDSSPYTFGQGTKVEIKRTVAAPSVFIFPPSDEQLKSGTASVVCLLNNFYPREAKVQWKVDNALQSGNSQESVTEQDSKDSTYSLSSTLTLSKADYEKHKVYACEVTHQGLSSPVTKSFNRGEC
 |  |  |  |  |  | 900 | 874F7 (antibody, V domains shown, Murine hybridoma antibody purified on Protein G; also called murine antibody 874F7) VH: QVQLKESGPGLVAPSHSLSITCNVSGFSLSKYGVHWIRQIPGRGLDWLGVLRAGGSTGYNSALMSRLSISKDSSKSQVFLKMNDLRTDDTAVYFCVRDHYYYSSYGGFVYWGQGTLVTVSA VL: DIQMTQSPASQSASLGESVTITCLASQTIGAWLAWYRQQPGKSPQLLIYAATRLADGVPSRFSGSGSGTEFSFKINNLQAEDFVSYYCQQLDSSPYTFGGGTRLEM
